± gives the standard deviation of the averaged measurements.
Tests used:
[1] = system: VchCAST RNA-guided transposition machinery (E. coli BL21(DE3) host, lacZ target); assay: relative integration efficiency (T-LR orientation) vs wild-type transposon end (log2 (normalized fold change)); transposon end mutated: right end (5 bp flank + 75 bp right end); higher = more efficient transposition
Outline: (§1)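 Co-transformation of E. coli BL21(DE3) combined a pUC57 mini-transposon donor, holding barcoded pools of 1549 left-end or 1849 right-end variants, with a T7-driven plasmid encoding a CRISPR array, tniQ-cas8-cas7-cas6 and tnsA-tnsB-tnsC. After plating with 0.1 mM IPTG at 37°C for 18 h, input plasmids and genomic integration junctions were PCR-amplified and Illumina-sequenced across two biological output replicates, with four reference barcodes. Relative integration efficiency is the normalised, log-transformed output/input barcode fold change.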

[2] = system: VchCAST RNA-guided transposition machinery (E. coli BL21(DE3) host, lacZ target); assay: relative integration efficiency (T-RL orientation) vs wild-type transposon end (log2 (normalized fold change)); transposon end mutated: right end (5 bp flank + 75 bp right end); higher = more efficient transposition
Outline: as §1

Sequence	relative integration efficiency (log2) [1]	relative integration efficiency (log2) [2]
ACATTTGTTGATACTACCATTTAATGATAATAACACCCATAAAATGATAATTATCACACCCAATTTAACTATAACGCTCTGATCATAGTCAGACCAACATTGCTACGACCCGTATTCGCACCGACAC	1.8 ± 0.17	-1.01 ± 0.18
ACATTTGTTGATACAACCATAAAATGATCATTACACCCATAAATTGATCATTATCACACCCATAAATTGATCTTGCCTCTGATCATAGTCAGACCAACATTGCTACGACCCGTATTCGCACCGACAC	-0.7415 ± 0.00084	-1.214 ± 0.0037
AACGGTGTTGATACAACCATAAAATGATAATTACACCCATAAATTGATAATTATCACACCCATAAATTGATATTGCCTCTGATCATAGTCAGACCAACATTGCTACGACCCGTATTCGCACCGACAC	0.221 ± 0.4	-0.153 ± 0.0083
ACATTTGTTGATACAACCATAAGTTGATATTTTCAACCATAAAATGATAATTATCACACCCATAAATTGATATTGCCTCTGATCATAGTCAGACCAACATTGCTACGACCCGTATTCGCACCGACAC	0.105 ± 0.58	0.367 ± 0.094
ACATTTGTTGATACAACCATAAAATGATAATTAATAATTATTTATAACACCCATAAATTGATAATTATCAACAAACGCCCGGTCGCGGTACTCTGATCATAGTCAGACCAACATTGCTACGACCCGT	0.00268 ± 0.47	-2.63 ± 0.52
ACATTTGTTGATAGTTGGTATTTTACTATTAATCACCCATAAATTGATAATTATCAGTGGGTATTTAACTATAACGCTCTGATCATAGTCAGACCAACATTGCTACGACCCGTATTCGCACCGACAC	-4.49 ± 1.4	-5.71 ± 0.79
ACATTAGTCGATACAACCATAAAATGATAATTACACCCATAAATTCATCATTATCACACCCAATTTAACTATAACGCTCTGATCATAGTCAGACCAACATTGCTACGACCCGTATTCGCACCGACAC	-6.06 ± 1.4	-7.32 ± 0.43
ACATTTGTTGATACAACCATAAAATGAGAATTACACCCATAAATTGAGAATTATCACACCCATAAATTGAGATTGCCTCTGATCATAGTCAGACCAACATTGCTACGACCCGTATTCGCACCGACAC	-0.085 ± 0.14	-1.04 ± 0.13
ACATTTGTTGATAACCAACGCCCCGTCGCCGGCCACCCATAAATTGATAATTATCAACAAACGCCCGGTCGCGGTACTCTGATCATAGTCAGACCAACATTGCTACGACCCGTATTCGCACCGACAC	-3.55 ± 0.48	-7.3 ± 0.31
ACATTTGTTGATACACCCATAAATTGATAATTACAACCATAAAGTGATATTTATCACAACCATATATTGATATCTCCTCTGATCATAGTCAGACCAACATTGCTACGACCCGTATTCGCACCGACAC	0.318 ± 0.42	-0.0337 ± 0.3
ACATTTGTTGATACAACCATAAAATCATAATTACCCCCATCAATTGATAATTATCACACCCAATTTAACTATAACGCTCTGATCATAGTCAGACCAACATTGCTACGACCCGTATTCGCACCGACAC	-2.04 ± 0.46	-5.12 ± 0.12
ACATTTGTTGATACAACCATAAAATGATAATTACTCTGATCATAGTCAGACCAACATTGCTACGACCCGTATTCGCACCGACACACCCATAAATTGATAATTATCACACCCATAAATTGATATTGCC	0.795 ± 0.3	-2.59 ± 0.21
ACATTTGTTGATACAACCATATTTAGATAATTACACCCATAAATTGATAATTATCACACCCATAAATTGATATTGCCTCTGATCATAGTCAGACCAACATTGCTACGACCCGTATTCGCACCGACAC	-0.623 ± 0.22	-0.585 ± 0.14
ACATTTGTTGATACACCCATAAATTGATATTGCCAACCATAAGTTGATATTTTTCACAACCATAAAATGATAATTACTCTGATCATAGTCAGACCAACATTGCTACGACCCGTATTCGCACCGACAC	-0.0638 ± 0.3	-0.413 ± 0.23
ACATTTGTTGATACAACCATAAAATGATAATTACTCTGATCATAGTCAGACCAACATTGCTACGACCCGTATTCGCACCACCCATAAATTGATAATTATCAGTGGGTATTTAACTATAACGCGACAC	1.01 ± 0.035	-2.38 ± 0.56
ACATTTGTTGATACAACCATAAAATGATAATTACACCCATAAATTGATAATTATCACAAAACGCCCGGTCGCGGTAAGAGGATCATAGTCAGACCAACATTGCTACGACCCGTATTCGCACCGACAC	2.81 ± 0.094	-0.437 ± 0.16
ACATTTGTAGAAAAAACCATACGTTGATTTTACGAAACCATACGCTGAAATAATCACACCCATAAATTGATATTGCCTCTGATCATAGTCAGACCAACATTGCTACGACCCGTATTCGCACCGACAC	-5.68 ± 1.4	-6.62 ± 0.1
ACATTTGTTGATACAACCATAAAGTGATATTTACAACCATATATTGATATCTCTCACAACCATATATTGATATCTCCTCTGATCATAGTCAGACCAACATTGCTACGACCCGTATTCGCACCGACAC	0.32 ± 0.11	-0.415 ± 0.28
ACATTTGTCGATACAACCATAAAATGATAATTCACCCATAAATTGATAATTATCACACCCCAATTTAACTATAACGCTCTGATCATAGTCAGACCAACATTGCTACGACCCGTATTCGCACCGACAC	1.05 ± 0.034	-2.26 ± 0.28
ACATTTGTTGATACAACCATTAAATGTTAATTCCACCCATAAATTGATAATTATCACACCCAATTTAACTATAACGCTCTGATCATAGTCAGACCAACATTGCTACGACCCGTATTCGCACCGACAC	1.73 ± 0.32	-1.56 ± 0.23
ACATTTGTGGATACAACCATAAAATGATAATTACACCCATAAATTGATCATTATCACCCCCAATTTAACTATAACGCTCTGATCATAGTCAGACCAACATTGCTACGACCCGTATTCGCACCGACAC	1.99 ± 0.056	-1.27 ± 0.17
ACATTTGTTCATACAACCATAAAATGATAATTACACCCATAAATTCATCATTATCACCCCCAATTTAACTATAACGCTCTGATCATAGTCAGACCAACATTGCTACGACCCGTATTCGCACCGACAC	0.174 ± 0.27	-1.97 ± 0.36
ACATTAGTTCATACAACCATAAAATGATAATTACACCCATAAATGGATAATTATCACACCCAATTTAACTATAACGCTCTGATCATAGTCAGACCAACATTGCTACGACCCGTATTCGCACCGACAC	-3.62 ± 0.12	-6.74 ± 0.15
ACATTTGTTGATACAACCATAAAATGATAATTAATAATTATTTATAATCAGCAACTTAACCACACACCCATAAATTGATAATTATCACACCCATAAATTGATATTGCCTCTGATCATAGTCAGACCA	-0.603 ± 0.78	-3.09 ± 0.16
ACATTTGTTGATACAACCATCAAATGGTAATTACACCCCTACATTGATAATTATCACACCCAATTTAACTATAACGCTCTGATCATAGTCAGACCAACATTGCTACGACCCGTATTCGCACCGACAC	-3.18 ± 1.1	-5.5 ± 0.092
ACATTTGTTGATACAACCAATAAATGATAATTACACCCATAAATTGATAATAATGACACCGAATTTAACTATAACGCTCTGATCATAGTCAGACCAACATTGCTACGACCCGTATTCGCACCGACAC	2.08 ± 0.21	-1.44 ± 0.28
ACATTTGTTGATACAACCATAAAATGATAATTACACCCATAAATTGATAATTATCTGACCCATAAATTGATATTGCCTCTGATCATAGTCAGACCAACATTGCTACGACCCGTATTCGCACCGACAC	0.513 ± 0.03	-0.393 ± 0.12
